Molecular target: APC-B (APC Basic domain, residues 2167-2674), without SNAP (human, UniProt P25054 2167-2674)
Test: other fluorescence titration

IC50: ~300 nM
B1: EB1 (full-length, untagged, unlabeled) (natural protein, human, UniProt Q15691 1-268, looked up)
chain: MAVNVYSTSVTSDNLSRHDMLAWINESLQLNLTKIEQLCSGAAYCQFMDMLFPGSIALKKVKFQAKLEHEYIQNFKILQAGFKRMGVDKIIPVDKLVKGKFQDNFEFVQWFKKFFDANYDGKDYDPVAARQGQETAVAPSLVAPALNKPKKPLTSSSAAPQRPISTQRTAAAPKAGPGVVRKNPGVGNGDDEAAELMQQVNVLKLTVEDLEKERDFYFGKLRNIELICQENEGENDPVLQRIVDILYATDEGFVIPDEGGPQEEQEEY

— publication PMC7726095 (Current biology : CB, 2020)
